Measured values as given in patent US20170081404A1.

Key:
[1] = target: Biotin-GCN4 peptide (yeast); assay: SPR (Biacore 3000, 25 C): Biotin-GCN4 peptide captured on immobilised streptavidin (CM5 chip), Fab-scFv injected as analyte, 1:1 binding model
[2] = target: Biotin-GCN4 peptide (yeast); assay: SPR, Biacore 3000, 25 C; Biotin-GCN4 peptide captured on immobilised streptavidin (CM5), Fab-scFv injected in three-fold dilutions from 30 nM, 1:1 binding model

- koff [1]: 0.00027 s⁻¹
- kon [1]: 510000 M⁻¹ s⁻¹
- Kd [2]: 0.516 nM
B1: Fab A-scFv '52SR4' (protein, part only; not given: Fab A heavy and light chains, not shown: another chain or arm of the molecule; a dimerising Fc or GST; small tags and cut ends)
scFv: DAVVTQESALTSSPGETVTLTCRSSTGAVTTSNYASWVQEKPDHLFTGLIGGTNNRAPGVPARFSGSLIGDKAALTITGAQTEDEAIYFCVLWYSDHWVFGCGTKLTVLGGGGGSGGGGSGGGGSGGGGSDVQLQQSGPGLVAPSQSLSITCTVSGFLLTDYGVNWVRQSPGKCLEWLGVIWGDGITDYNSALKSRLSVTKDNSKSQVFLKMNSLQSGDSARYYCVTGLFDYWGQGTTLTVSSAAAHHHHHHEQKLISEEDL
